Data taken from article PMC4729829, “BAP1/ASXL1 recruitment and activation for H2A deubiquitination” (Nature Communications, 2016).

Columns and labels:
[1] = molecular target: Nucleosome core particle mono-ubiquitinated at H2A K119 with N-terminally TAMRA-labeled ubiquitin (Xenopus | not stated) (UniProt P06897); experiment: fluorescence polarisation; stopped-flow; 20 nM ^TAMRAUb-NCP mixed with various concentrations of inactive (C91A) BAP1 or BAP1/ASXL1^DEU; 25 mM HEPES pH 7.5, 150 mM NaCl, 0.05% Tween-20, 0.5 mM TCEP; 20 °C; kobs against concentration by linear regression
[2] = molecular target: BAP1/ASXL1DEU complex (human) (UniProt Q92560)
[3] = tested on: BAP1 C91A;ASXL1 DEUBAD (ASXL1DEU); experiment: stopped-flow fluorescence polarization; conditions: 20 C, 20 nM NCP, histone H2A K119 mono-ubiquitinated by RING1B/BMI1, EMSA: 100 nM NCP, 4-12% Tris-glycine native gel, 4 C, FP: 25 mM HEPES pH 7.5, 150 mM NaCl, 0.05% Tween-20, 0.5 mM TCEP
[4] = molecular target: BAP1/ASXL1^DEU complex (wild type) (human) (UniProt Q92560)
[5] = molecular target: BRCA-1-associated protein 1 (BAP1), full length, wild type (human) (UniProt Q92560)

BAP1 (C91A)/ASXL1^DEU complex (from UniProt Q92560 1-729; Q8IXJ9 238-390)
Kd [1]: 4 µM

non-hydrolyzable H2A-peptide ubiquitin conjugate (H2A-K119) (from UniProt P0CG47 1-75)
Supplementary Table 3: IC50 of the non-hydrolyzable H2A ubiquitin conjugate for inhibition of Ub-AMC hydrolysis by BAP1/ASXL1DEU [2]: 3.3 µM

TAMRA-Ub-NCP (H2A K119ub, Widom 601 167 bp)
Kd [3]: 4 µM

Non-hydrolyzable H2A-peptide ubiquitin conjugate (ubiquitin linked at the K119 position) (from UniProt P0CG48 1-75)
IC50 of inhibition of Ub-AMC hydrolysis by the BAP1/ASXL1^DEU complex, against BAP1 alone (fold lower than BAP1 alone) [4]: > 10
IC50 of inhibition of Ub-AMC hydrolysis by BAP1 (500 pM enzyme, 2 μM Ub-AMC, conjugate up to 200 μM) [5]: 45 μM
